According to patent publication US20240002530A1 (LXZ SERVICES, published 2024):

Biological target: T1, human prostate-specific membrane antigen (PSMA), on prostate cancer LNCaP and PC-3 cells (human, UniProt Q04609 1-750)
T1 construct: also called glutamate carboxypeptidase II; GCPII
Test: flow cytometry on LNCaP cells

T1 sequence (Q04609 whole entry): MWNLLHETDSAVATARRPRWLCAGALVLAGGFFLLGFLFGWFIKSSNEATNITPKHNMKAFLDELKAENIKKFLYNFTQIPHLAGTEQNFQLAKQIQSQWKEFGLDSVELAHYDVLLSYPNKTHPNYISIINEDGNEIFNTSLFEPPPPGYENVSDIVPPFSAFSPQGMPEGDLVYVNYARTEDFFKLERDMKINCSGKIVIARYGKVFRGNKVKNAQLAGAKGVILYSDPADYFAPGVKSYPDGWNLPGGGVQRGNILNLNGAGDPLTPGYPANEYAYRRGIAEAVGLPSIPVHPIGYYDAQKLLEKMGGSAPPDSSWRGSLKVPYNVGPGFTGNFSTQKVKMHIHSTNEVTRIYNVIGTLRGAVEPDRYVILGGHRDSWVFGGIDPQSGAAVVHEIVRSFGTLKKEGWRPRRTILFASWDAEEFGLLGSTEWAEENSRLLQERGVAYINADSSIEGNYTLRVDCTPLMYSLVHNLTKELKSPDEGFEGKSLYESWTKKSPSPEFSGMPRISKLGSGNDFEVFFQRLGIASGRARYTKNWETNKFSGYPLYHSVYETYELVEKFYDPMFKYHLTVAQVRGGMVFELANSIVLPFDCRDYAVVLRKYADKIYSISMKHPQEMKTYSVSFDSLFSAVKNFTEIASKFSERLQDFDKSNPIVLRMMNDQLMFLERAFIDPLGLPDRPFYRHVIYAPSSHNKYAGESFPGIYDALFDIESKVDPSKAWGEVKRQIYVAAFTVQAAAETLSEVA

B1: Antibody No. 12 (antibody, V domains shown)
VH: VQLQESGPGLVKPSQSLSLTCTVTGYSITSDYAWNWIRQFPGNKLEWMGYISYSGSTSYNPSLKSRISITRDTSKNQFFLHLNSVTTEDTATYYCARQTYYYGSSPFTYWGQGTTVTVSS
VL: DIVMTQTPSSLTVTAGEKVTMRCKSSQSLLNSGNQKSYLTWYQQKPGQPPKLLIYWASTRESGVPDRFTGSGSGTDFTLTISSVQAEDLAVYYCQNDYSYPLTFGAGTKLELK
notes: Mouse hybridoma monoclonal IgG from ascites; also called PSMA-McAb clone 12
Q: Does B1 bind?
A: binds

B2: Antibody No. 18 (antibody, V domains shown)
VH: VQLEESGDDLVKPGASVKLSCKASGHTFTSYWINWIKQRPGQGLEWIGRIAPGSGSTYYNEMFKGKATLTVDTSSSTAYIQLSSLSSEDSAVYFCARNLKYGNYGFAYWGQGTTVTVSS
VL: DIVMTQTPSSLTVTAGEKVTMSCKSSQSLLNSGNQKNYLTWYQQKPGQPPKLLIYWASTRESGVPDRFTGSGSGTDFTLTISSVQAEDLAVYYCQNDYSYPLTFGAGTKLEIK
notes: Mouse hybridoma monoclonal IgG from ascites; also called PSMA-McAb clone 18
Q: Does B2 bind?
A: binds

B3: Antibody No. 14 (antibody, V domains shown)
VH: VQLQESGPGLVQPSQSLSITCTVSGFSLTSYGVHWVRQSPGKGLEWLGVIWRGGSTDYNAAFMSRLSITKDNSKSQVFFKMNSLQADDTAIYYCAKKKYGNYGAMDYWGQGTTVTVSS
VL: DIVMTQSPKFLLVSAGDRVTITCKASQSVSNDVAWYQQKPGQSPKLLIYYASNRYTGVPDRFTGSGYGTDFTFTISTVQAEDLAVYFCQQDYSSPYTFGGGTKLELK
notes: Mouse hybridoma monoclonal IgG from ascites; also called PSMA-McAb clone 14
Q: Does B3 bind?
A: binds
